Experimental data published in patent publication US20240279344A1 (CDR LIFE, published 2024).
Residue numbers refer to the chain shown, from its start.

B1: M0710 (Fab, V domains shown)
VH: QSVKESGGRLVTPGTPLTLTCTVSGFSLSNYAMSWVRQAPGKGLEYIGIVSSGGTTYYASWAKGRFTISKTSTTVDLKITSPTTEDTATYFCAKDLYYGPTTYSAFNLWGQGTLVTVSS
VL: SELVLTQPQSVSGSLGQTVSISCKRARDNIEDYYVHWYQQYPGKTPTIVIYKDDQRPSGVPDRFSGSIDSTSNSASLTITGLLAEDEADYFCQSFDNNANVVFGGGTQLTVTG
B2: M0708 (Fab, V domains shown)
VH: B1 VH with K4E
VL: B1 VL with D28N, Y41H, K44R, T45S, Y51H, V101P
B3: M0766 (Fab, V domains shown)
VH: PEQLEESGGGLVTPGGVLTLTCTASGFSFSSYGVNWVRQAPGKGLEWIGFIFGDGTTYYANWAKGRFTISKTSTTVDLKMTSPTTEDTATYFCARDGYGGYDYIINLWGQGTLVTVSS
VL: AQVLTQTPASVSAAVGGTVSISCQSSQSVVNNNWLAWYQQKPGQPPKLLIYKASTLESGVPSRFKGSGSGTQFTLTISGVQADDAATYYCLGEFSCSSADCHAFGGGTELEILR
B4: M0762 (Fab, V domains shown)
VH: QSVKESGGRLVTPGTPLTLTCTASGFTISSSAISWVRQAPGKGLEYIGIIRSGGTTDYASWAKGRFAISKTSTTVDLKITSPTTEDTATYFCARDPPYITSTYFDLWGQGTLVTVSS
VL: SELVLTQPQSVSGSLGQTVSISCKRARDSVESYDVHWYQQHPGKTPTIVIYKDDQRPSGVPDRFSGSIDSTSNSASLTITGLLAEDEADYFCQSFDGDAVVFGGGTQLTVTG
B5: M0705 (Fab, V domains shown)
VH: QQQLVESGGRLVTPGTPLTLTCTASGIDLNSNAMSWVRQGPGKGLEWIGDIWSGGYTDYASWAKGRFTISKTSTTVDLKMTSLTAADTATYFCARDRLAGDGVVDYDLWGQGTLVTVSS
VL: ELDMTQTPASVEVAVGGTVTIKCQASQNIYSNLAWYQQKPGQRPKLLIYGASTLASGVPSRFKGSGSGTEYTLTINGVQAADAATYYCQQGFSSSNVDNVFGGGTEVVVKR
B6: M0702 (Fab, V domains shown)
VH: QEQLEESGGGLVTPGTPLTLTCTASGFSLSSYAMIWVRQAPGKGLEWIGTINDGGTAFYANWVKGRFTISRTSTTVDLKMTSPTTEDTATYFCARAYGSNGDVYWGYVNLWGQGTLVTVSS
VL: ELVMTQTPASVSEPVGGTVTIKCQASQSIGSNLAWYQQKPGQPPKLLIYAAANLASGVSSRFKGSRSGTEYTLTISGVQAADAATYYCQQGYSSSNVANVFGGGTELEILR
B7: M0707 (Fab, V domains shown)
VH: QQQLEESGGGLVTPGTPLTLTCTVSGIDLSSYAMGWVRQAPGKGLEWIGTINDGGSAFYASWVKGRFTISRTSTTVDLKITSPTAEDTATYFCAKTYGTNGDVYWGYFNLWGQGTLVTVSS
VL: ELVMTQTPASVSEPVGGTVTIKCQASQSIGSNLAWYQQKPGQPPKLLIYYESILASGVPSRFSGSGSGTEYTLTISGAQADDAATYYCQQGYSSSNILNAFGGGTEVVVKR
B8: M0749 (VHH)
VHH: EVQLVESGGGSVQPGGSLRLSCAASGFTFSRSTMSWVRQAPGKEIEWVSSVSGSGGVTTYADSVKGRFTISRDNAKNTLYLQMSSLKPEDTAVYYCGNSNARGQGTQVTVSS
notes: Llama-derived VHH
B9: M0866 scFv (scFv)
scFv: QSVKESGGRLVTPGTPLTLTCTASGFTISSSAISWVRQAPGKGLEYIGIIRSGGTTDYASWAKGRFAISKTSTTVDLKITSPTTEDTATYFCARDPPYITSTYFDLWGQGTLVTVSSGGGGSGGGGSGGGGSGGGGASELVLTQPQSVSGSLGQTVSISCKRARDSVESYDVHWYQQHPGKTPTIVIYKDDQRPSGVPDRFSGSIDSTSNSASLTITGLLAEDEADYFCQSFDGDAVVFGGGTQLTVTG
notes: Rabbit scFv identified by phage display
B10: M0750 (VHH)
VHH: MEVQLVESGGGLVQPGGSLRLSCAASGFTFSRYTMSWVRQAPGEGLEWVSSIGSGGGPTTYANSVKGRFTVSRDNAKNTLWLQMNNLKPEDTALYYCQGGGNRGQGAQVTVSS
notes: Llama-derived VHH
B11: M0748 (VHH)
VHH: EVQLVESGGGAVQAGGSLRLSCTVSGRPFTKYAWGWFRQPPEKEREFVATSTWDVGSTYYADSAKGRFTISRDNANNIIDLQMNSLKPEDTAVYYCAASNTYSSDITYYAKPMAFNFWGQGTQVTVSS
notes: Llama-derived VHH
B12: M0736 (VHH)
VHH: EVQLVESGGGLVQAGGSLRLSCTVSGRTSSAFAMGWFRQAPGKEREFVAAINLTGGTTNYAESVKGRFTISRDNAKNTGYLGMSSLKPEDTAVYYCAGRNRWSEGREVAPSSYYYWGQGTQVTVSS
notes: Llama-derived VHH
B13: M0745 (VHH)
VHH: EVQLVESGGGLVQAGGSLRLSCAVSGRRVSIYGMGWYRLAPGKQREMVASITSGGITTYADSVKGRFSISRDNAKNTVYLQMNSLKPEDTAVYYCNYHDYRVQGESWGQGTQVTVSS
notes: Llama-derived VHH
B14: M0738 (VHH)
VHH: EVQLVESGGGLVEAGVSLRLSCAASGRTSENFAMGWFRQAPGNEREFVAAITRNHRTFYKESVKDRFTISRDDAKNTVYLEMNNLVPDDTAVYTCAAKFDPYASASSYYTGYYYWGQGTQVTVSS
notes: Llama-derived VHH
B15: M0751 (VHH)
VHH: EVQLVESGGGLVQPGGSLRLSCAASGFSFRLYTMSWVRQAPGKGLEWVSSISSGGGVVTTYADSAKGRFTISRDNDKNTLTLQMNSLKPEDTAVYYCAQGERRGQGTQVTVSS
notes: Llama-derived VHH
B16: M0740 (VHH)
VHH: EVQLVESGGGLVQPGGSLRLSCLASGFPFSMYTMNWVRQAPGKGLEWVSAISSGGAVTTYADSVKGRFTISRDNAKNTLYLQMSSLKPEDTAVYYCESSNNRGQGTQVTVSS
notes: Llama-derived VHH
B17: M0744 (VHH)
VHH: EVQLVESGGGLVQPGGSLRLSCAASGSIFSINDMDWYRQAPGKQRELVAAITRGGSTNYADSVKGRFTISRDNAKNTVYLQMNSLKPEDTAVYYCNAEVSTETTGWRTWRDYWGQGTQVTVSS
notes: Llama-derived VHH
B18: M0734 (VHH)
VHH: EVQLVESGGGLVQAGGSLRVSCAASGLTFSNYAMGWFQQAPGKEREFVAGISWSGVSTYYADFVKGRFTISRDNAKNTVYLQMNSLKPEDTAVYYCAADNRRYSRGTSISTWRSDYDYWGQGTQVTVSS
notes: Llama-derived VHH
B19: M0735 (VHH)
VHH: EVQLVESGGGLVQAGGSLRLSCAASGLTFRRYTMGWFRQAPGKEREFVAAIVSSDSTNYADSVKGRFTISRDNAKNTVYLEMNSLKPDDTCVYYCAARNSLSLYVSNLGSRYDYWGQGTQVTVSS
notes: Llama-derived VHH
B20: M0746 (VHH)
VHH: EVQLVESGGGLVQAGGSLRLSCAASGRTFSNNAMGWFRQGPDQEREFVAAISRSGGGSGGAPLYADSVKGRFTISRDNAKNTMSLSMNSLSPEDTAVYYCAARSLYKVAGSDDLSDYAYWGQGTQVTVSS
notes: Llama-derived VHH
B21: M0741 (VHH)
VHH: EVQLVESGGGAVQAGGSQRLSCTVSGRPFTKYAMGWFRQPPEKEREFVATSTWEGSTYYADSVKGRFTISRDNANNIIDLQMNTLKPEDTAVYFCAASNTYNADTTYYAKSTAFNFWGQGTQVTVSS
notes: Llama-derived VHH
B22: M0737 (VHH)
VHH: EVQLVESGGGLVQRGDSRRLSCAASGRPFSSFAMGWFRQAPGKEREFVAGISRSAGNTDYSDSVKGRFTISRDNAKNTVYLELNNLTPEDTAVYYCAAQIAIGTGSVFQSNTQYMYWGQGIQVTVSS
notes: Llama-derived VHH
B23: M0752 (VHH)
VHH: EVQLVESGGGLVQPGGSLRLSCAASGFTFSNYGMSWVRQAPGKGLEWVSSIGSGGRITTYLDSVKGRFTISRDNAKNTLYLQMNSLKSEDTAVYYCESGGYRGQGTQVTVSS
notes: Llama-derived VHH
B24: M0709 (Fab, V domains shown)
VH: B1 VH
VL: B1 VL with Y41H, Y51H, N98D, N100S, V101P

Each binder was assayed against T1, HLA-A2/MAGE-A4 complex, recombinant (HLA-A*02:01 extracellular domain, human b2m, MAGE-A4 peptide 230-239 …) (human, UniProt P04439 25-299 at identity 0.94); P61769 21-119) (assay: direct ELISA, plate coated with HLA-A2/MAGE-A4 complex, serial dilution of the antibody).
T1 construct: also called MAGE-A4 pMHC; MAGE-A4/HLA-A2 complex
Procedure: All available hits were evaluated for their ability to bind MAGE-A4/HLA-A2 complex and a control peptide/HLA-A2 complex in a direct binding ELISA assay. […] Briefly, 96 well ELISA plates were coated with purified human MAGE-A4/HLA-A2 complex or control HLA-A2 complex. Serial dilutions of antibody molecules were added to the plate and detected by an anti-kappa light chain-HRP (Invitrogen) or a purified rabbit anti-VHH (QVQ) followed by goat anti-rabbit IgG(H+L) HRP (Southern Biotech). […] 5B.

Row | Binder | binding result | EC50 (read off the curve) [nM]
1 | B1 | binds | –
2 | B2 | binds | –
3 | B3 | binds | –
4 | B4 | binds | –
5 | B5 | binds | –
6 | B6 | – | ~0.6
7 | B7 | binds | –

These binders were tested against T1, HLA-A2/MAGE-A4 complex, recombinant … (assay: phage display biopanning and screening).

Row | Binder | binding result
8 | B8 | binds
9 | B9 | binds
10 | B10 | binds
11 | B11 | binds
12 | B12 | binds
13 | B13 | binds
14 | B14 | binds
15 | B15 | binds
16 | B16 | binds
17 | B17 | binds
18 | B18 | binds
19 | B19 | binds
20 | B20 | binds
21 | B21 | binds
22 | B22 | binds
23 | B23 | binds

These binders were tested against T2, control peptide 1 (…) displayed by HLA-A2 on T2 cells (human) (assay: flow cytometry on peptide-pulsed T2 cells, relative MFI (binding over peptide loading)).
T2 construct: whole, on cells; also called Ctrl.1
Procedure: (§1) TAP-deficient T2 cells were pulsed with HLA-A2-restricted peptides (MAGE-A4 or control peptides) and incubated with MAGE-A4 binders followed by fluorophore-labeled specific detection antibodies and analysis by flow cytometry.
(§2) Briefly, T-B hybrid T2 cells were incubated with serum-free RPMI1640 medium containing MAGE-A4 or control peptides. […] Peptide loading efficiency was verified by using the ratio between median fluorescent intensity (MFI) of HLA-A2-binding antibody BB7.2 on peptide loaded T2 cells and MFI of unloaded T2 cells (>1). T2 cells were incubated with each of the specific antibodies followed by fluorophore-labeled detection antibodies (anti-kappa light chain or anti-Flag). The cells were fixed and fluorescence was measured by flow cytometry.

Row | Binder | binding result
24 | B24 | binds

What follows are binders tested against T3, control peptide 2 (…) displayed by HLA-A2 on T2 cells (human) in the same assay as above.
T3 construct: whole, on cells; also called Ctrl.2
Procedure: as §1, §2

Row | Binder | binding result
25 | B24 | binds
